Data from patent US11733246B2, “Compositions, imaging, and therapeutic methods targeting folate receptor 1 (FOLR1)” (Indi Molecular, Inc., priority 2020, dated 2023).
Numbered stars: 1 amine (or outer) side, 2 acyl side, 3 side chain; on linkers, the order of the positions; unused ones are H or OH. Bridge positions count the residues as written; N and C are the ends. Square brackets hold non-standard residues; d marks the D form. Triazole bridges read from a SMILES are 1,4-linked. Peptide text beside a SMILES is read from it. * marks the point of attachment. DOTA = O=C(O)CN1CCN(CC(=O)O)CCN(CC(=O)*)CCN(CC(=O)O)CC1; Pteroyl = Nc1nc2ncc(CNc3ccc(C(=O)*)cc3)nc2c(=O)[nH]1; Butanoyl(4-(4-MePh)) = Cc1ccc(CCCC(=O)*)cc1; Lys(N3) = [N-]=[N+]=NCCCC[C@H](N)C(=O)O; γGlu = O=C(O)[C@H](CCC(=O)[*:2])N[*:1]; AEEEA = NCCOCCOCCOCC(=O)O; Pra = C#CC[C@H](N)C(=O)O

Columns and labels:
[1] = in vivo; conditions: female, NSG, mouse, iv, total radioactivity
Description: (§1) Female, 7-week-old NSG mice were housed under pathogen-free conditions. Water and food were provided ad libitum. To create mice with FOLR1+ ovarian xenograft tumors, mice were injected subcutaneously with OVCAR3 cells (1×10^7 cells per mouse) resuspended in 50% Matrigel in PBS into the shoulder region. Tumor growth was monitored by caliper measurements. OVCAR3 is a human ovarian adenocarcinoma known to over-express FOLR1.
(§2) ^68Ga PET imaging was used to study in vivo biodistribution of heterobiligands in non-tumor bearing (healthy) mice and OVCAR3 tumor bearing mice. 100-200 μCi of [^68Ga]DOTA-labeled heterobiligand was administered intravenously (i.v.) via the tail vein of each mouse. Dynamic PET imaging was performed from 0-1 h, followed by acquisition of static PET images at 2 h and 4 h post-injection. CT scans were acquired for anatomical reference. Imaging was performed on an Inveon microPET/CT small animal scanner. The PET signal was quantitated by three-dimensional ROI analysis and represented as percent injected dose (% ID) vs. time ([…]) for major organs including tumor, liver, heart, lung, bladder, and kidney.
(§3) Evaluation of a folate-hshta (SEQ ID NO:6) Nterm heterobiligand bearing both an albumin binder and DOTA chelator in PET was a priority, given that DOTA can accommodate both ^68Ga for imaging and ^177Lu for radiotherapy. A 200 μCi dose of ^68Ga-labeled folate-hshta-PEG3-Lys(MPBA)-Lys(DOTA) (SEQ ID NO:6) (compound #2809) was injected i.v. via tail vein in an NSG mouse bearing s.c. human OVCAR3 (FOLR1+) tumor. ^68Ga PET/CT imaging scans were performed at 0-1 h (dynamic), 2 h (static), and 4 h (static). […] The time-course biodistribution of ^68Ga-labeled folate-hshta-PEG3-Lys(MPBA)-Lys(DOTA) (SEQ ID NO:6) (compound #2809) was calculated to quantify the uptake in major organs including the tumor (FIG. 17). […] Larger tumors (490 mm^3) were also evaluated with the ^68Ga-chelated PET probe.
(§4) Images were captured for compound #1307 at the time points 5 min, 10 min, 15 min, 30 min, 1 h, 2 h, and 4 h. PET/CT images were taken following the injection of 4 female NSG mice with ^68Ga-chelated compound #2809. […] Images for mouse 4 are shown in FIG. 23 (Compounds #1307 and #2809) and FIG. 24 (Compound #1307).
(§5) Biodistribution was initially evaluated by PET imaging, as the time frame for a significant portion of clearance is roughly similar to the time frame of PET imaging experiments. Indi ^68Ga-7327 was injected via the tail vein into OVCAR3 (FOLR+) tumor implanted female NSG mice once the tumor size reached 200 mm^3, and microPET/CT scans were acquired at 5 min, 10 min, 15 min, 30 min, 1 h, 2 h, and 4 h post-injection. PET images were corrected for CT-based photon attenuation, detector normalization and radioisotope decay and converted to units of percent injected dose per cc (% ID/cc).

[2] = system: OVCAR3 (FOLR1+) tumor bearing NSG mice; test: in vivo; conditions: mouse
Description: as §1, §2, §3, §4, §5

[3] = system: OVCAR3 FOLR1+ cells; test: Flow cytometry binding to FOLR1 (+) cells; type: cell-based, human; conditions: OVCAR3 vs PC-3, flow cytometry
Description: Both the kyeet (SEQ ID NO:9) and hshta (SEQ ID NO:6)-derived biligands were tested by flow cytometry for binding to FOLR1 (+) and FOLR1 (−) cell lines (FIGS. 6 and 7). The human ovarian adenocarcinoma-derived cell line OVCAR3 has robust FOLR1 expression and was selected as the FOLR1 (+) cell line. The human prostate adenocarcinoma-derived cell line PC-3 was selected as a FOLR1 (−) cell line.
Competition at the cellular level was also probed.
Increasing the serum-bound fraction of the peptide may decrease first pass removal of the heterobiligand, and drive compound retention of tumor over kidney. Constructs bearing the known albumin binder 4-methylphenyl butyric acid (4-MPBA) were synthesized. These compounds were evaluated in vitro to verify binding fidelity to FOLR1. The modified heterobiligands were incubated at 400 nM with OVCAR3 and PC-3 cells for 20 minutes at 37° C. in complete media containing 20% FBS. They both bind to OVCAR3 FOLR1+ cells with similar binding affinities as the original heterobiligand studied (FIG. 14). […] Similar activity of these heterobiligands is anticipated in vivo.

[4] = system: OVCAR3 FOLR1+ cells; test: Flow cytometry binding to FOLR1 (+) cells; type: cell-based, human; conditions: 40 nM of the test article
[5] = molecular target: human serum albumin (Homo sapiens, UniProt P02768); conditions: read-out: affinity for human serum albumin; cited from earlier work

With `C[C@H](O)[C@H]1NC(=O)[C@@H](Cc2cnc[nH]2)NC(=O)[C@@H](CO)NC(=O)[C@@H](Cc2cnc[nH]2)NC(=O)[C@@H](NC(=O)CC[C@H](NC(=O)c2ccc(NCc3cnc4nc(N)[nH]c(=O)c4n3)cc2)C(=O)O)Cc2cn(nn2)CCCC[C@@H](C(=O)NCC(=O)N[C@@H](Cc2ccccc2)C(=O)N[C@@H](CCCCNC(=O)CN2CCN(CC(=O)O)CCN(CC(=O)O)CCN(CC(=O)O)CC2)C(=O)O)NC(=O)[C@@H](C)NC1=O` [Indi ^68Ga-7327, metal not drawn] ({Pteroyl-γGlu}-[Pra][dH][dS][dH][dT][dA][Lys(N3)]GFK(DOTA)-OH; triazole 1-7) the tissue uptake per volume at 4 h ([1]; accumulation in the tumor) was 1.55 %ID/mL and the kidney uptake [2] was “significant reduction in kidney uptake”.

For `Cc1ccc(CCCC(=O)NCCCC[C@H](NC(=O)COCCOCCOCCNC(=O)[C@@H]2CCCCn3cc(nn3)C[C@H](NC(=O)CC[C@H](NC(=O)c3ccc(NCc4cnc5nc(N)[nH]c(=O)c5n4)cc3)C(=O)O)C(=O)N[C@H](Cc3c[nH]cn3)C(=O)N[C@H](CO)C(=O)N[C@H](Cc3c[nH]cn3)C(=O)N[C@H]([C@H](C)O)C(=O)N[C@H](C)C(=O)N2)C(=O)N[C@@H](CCCCNC(=O)CN2CCN(CC(=O)O)CCN(CC(=O)O)CCN(CC(=O)O)CC2)C(N)=O)cc1` [^68Ga-chelated compound #2809, metal not drawn] ({Pteroyl-γGlu}-[Pra][dH][dS][dH][dT][dA][Lys(N3)][AEEEA]K(Butanoyl(4-(4-MePh)))K(DOTA)-NH2; triazole 1-7), the tissue uptake per volume at 4 h ([1]; 200 uCi, dose accumulation in the tumor) was roughly 1.4 %ID/mL.

For `C[C@H](O)[C@H]1NC(=O)[C@@H](CCC(=O)O)NC(=O)[C@@H](CCC(=O)O)NC(=O)[C@@H](Cc2ccc(O)cc2)NC(=O)[C@@H](CCCCN)NC(=O)[C@@H](NC(=O)[C@H](Cc2cn(CCOCCOCCOCCNC(=O)CC[C@H](NC(=O)c3ccc(NCc4cnc5nc(N)[nH]c(=O)c5n4)cc3)C(=O)O)nn2)NC(=O)CCOCCOCCOCCOCCOCCOCCOCCOCCOCCOCCNC(=O)CCOCCOCCOCCOCCOCCOCCOCCOCCOCCOCCNC(=O)CCCC[C@@H]2SC[C@@H]3NC(=O)N[C@@H]32)Cc2cn(nn2)CCCC[C@@H](C(N)=O)NC1=O` [folate-kyeet heterobiligand], the “selectivity for FOLR1 (+) cells over FOLR1 (−) cells” value [3] was “high selectivity for FOLR1 (+) cells” and the “selectivity for FOLR1 (+) cells” value [4] was “Virtually complete selectivity”.

For “GI48-GA: albumin-binding domain, fragment of protein G from Streptococcus strain GI48 (SEQ ID NO:33) (LAEAKVLANRELDKYGVSDYYKNLINNAKTVEGVKALIDEILAA)”, the Kd [5] is given as 1 nM.
